# T1: Mcl-1, Q07820
# T1 chain: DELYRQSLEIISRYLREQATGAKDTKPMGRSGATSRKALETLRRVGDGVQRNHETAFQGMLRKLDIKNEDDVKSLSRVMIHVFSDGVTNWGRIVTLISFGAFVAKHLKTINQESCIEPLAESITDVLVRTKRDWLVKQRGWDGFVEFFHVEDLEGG
# T2: Bcl-2, P10415
# T2 chain: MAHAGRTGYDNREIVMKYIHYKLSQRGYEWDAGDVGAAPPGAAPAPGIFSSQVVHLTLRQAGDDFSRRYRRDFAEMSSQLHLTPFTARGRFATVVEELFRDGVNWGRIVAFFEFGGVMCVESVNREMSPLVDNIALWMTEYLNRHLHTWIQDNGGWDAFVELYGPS
# T3: Bcl-w, Q92843
# T3 chain: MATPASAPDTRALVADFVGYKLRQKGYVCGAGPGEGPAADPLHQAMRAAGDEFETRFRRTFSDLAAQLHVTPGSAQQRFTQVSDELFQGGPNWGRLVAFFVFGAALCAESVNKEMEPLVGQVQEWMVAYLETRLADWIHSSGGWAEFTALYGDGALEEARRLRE
# T4: Bfl-1, Q16548
# T4 chain: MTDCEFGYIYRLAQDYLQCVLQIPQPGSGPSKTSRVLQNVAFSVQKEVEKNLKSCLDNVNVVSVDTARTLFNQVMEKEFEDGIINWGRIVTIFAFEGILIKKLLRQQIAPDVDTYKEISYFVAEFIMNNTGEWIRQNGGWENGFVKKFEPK
# Target: Bcl-xL, Q07817
# Sequence (Q07817 1-209): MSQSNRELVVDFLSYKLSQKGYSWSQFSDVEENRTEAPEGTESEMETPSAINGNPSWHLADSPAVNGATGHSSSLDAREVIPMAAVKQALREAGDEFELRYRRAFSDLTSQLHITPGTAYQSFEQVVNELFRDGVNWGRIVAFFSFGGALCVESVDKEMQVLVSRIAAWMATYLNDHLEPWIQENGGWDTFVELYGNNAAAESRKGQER
# Test: fluorescence polarisation, direct titration of receptor into 10 nM labelled peptide
row,Binder,Kd [nM]
1,TVATRRLSGFLRTLADRLEGTKELLS [MINA],1010
2,SKFVILSAHKLVFIGDTLSRQAKAAD [BCAR1],2540
3,FSKREKLVEILRNIGDERTMVFVETK [DDX4],> 4000
4,PAKKMTLSEIYRWICDNFPYYKNAGI [FOXJ2],103

# The remaining lines, values ahead:
row,Kd [nM],Binder
1,1460,ACGDSVLARMLRELGDSLRRPQLRLW [SLC19A1]
2,> 100000,FKAWGKFGGAFCRYADEMKEIQERQR [PURB]
3,39,TRRSMVFARHLREVGDEFRSRHLNST [POFUT2]

# Target: T1, Mcl-1, Q07820
# Test: as above
row,Binder,Kd [nM]
1,TVATRRLSGFLRTLADRLEGTKELLS [MINA],> 10000
2,SKFVILSAHKLVFIGDTLSRQAKAAD [BCAR1],912
3,FSKREKLVEILRNIGDERTMVFVETK [DDX4],142
4,PAKKMTLSEIYRWICDNFPYYKNAGI [FOXJ2],> 10000

# More lines, now with the values ahead:
row,Kd [nM],Binder
1,22,ACGDSVLARMLRELGDSLRRPQLRLW [SLC19A1]
2,> 4000,FKAWGKFGGAFCRYADEMKEIQERQR [PURB]
3,23,DAIIQMIVELLKRVGDQWEEEQSLAS [c6orf222]
4,> 10000,TRRSMVFARHLREVGDEFRSRHLNST [POFUT2]
5,69,LRGSGAWGLLLRRVGDDVLVHLLARC [TERT]

# Target: T2, Bcl-2, P10415
# Test: as above
row,Binder,Kd [nM]
1,SWFIQSLCAMLKQYADKLEFMHILTR [CASP3],264
2,TVATRRLSGFLRTLADRLEGTKELLS [MINA],266
3,SKFVILSAHKLVFIGDTLSRQAKAAD [BCAR1],2990
4,FSKREKLVEILRNIGDERTMVFVETK [DDX4],> 3040
5,PAKKMTLSEIYRWICDNFPYYKNAGI [FOXJ2],130

# The next lines start with the values.
row,Kd [nM],Binder
1,> 3040,KIETTPESRYLAQIGDSVSLTCSTTG [VCAM1]
2,237,ACGDSVLARMLRELGDSLRRPQLRLW [SLC19A1]
3,34,FKAWGKFGGAFCRYADEMKEIQERQR [PURB]
4,0.3,DAIIQMIVELLKRVGDQWEEEQSLAS [c6orf222]
5,98,TRRSMVFARHLREVGDEFRSRHLNST [POFUT2]
6,49,LRGSGAWGLLLRRVGDDVLVHLLARC [TERT]

# Target: T3, Bcl-w, Q92843
# Test: as above
row,Binder,Kd [nM]
1,SWFIQSLCAMLKQYADKLEFMHILTR [CASP3],64
2,TVATRRLSGFLRTLADRLEGTKELLS [MINA],1230
3,SKFVILSAHKLVFIGDTLSRQAKAAD [BCAR1],3610
4,FSKREKLVEILRNIGDERTMVFVETK [DDX4],> 4350
5,PAKKMTLSEIYRWICDNFPYYKNAGI [FOXJ2],85

# Now from value to binder:
row,Kd [nM],Binder
1,> 4350,KIETTPESRYLAQIGDSVSLTCSTTG [VCAM1]
2,> 1800,FKAWGKFGGAFCRYADEMKEIQERQR [PURB]
3,13,DAIIQMIVELLKRVGDQWEEEQSLAS [c6orf222]
4,98,TRRSMVFARHLREVGDEFRSRHLNST [POFUT2]
5,992,LRGSGAWGLLLRRVGDDVLVHLLARC [TERT]

# Target: T4, Bfl-1, Q16548
# Test: as above
row,Binder,Kd [nM]
1,SWFIQSLCAMLKQYADKLEFMHILTR [CASP3],43
2,TVATRRLSGFLRTLADRLEGTKELLS [MINA],1130
3,SKFVILSAHKLVFIGDTLSRQAKAAD [BCAR1],4680
4,FSKREKLVEILRNIGDERTMVFVETK [DDX4],> 3370
5,PAKKMTLSEIYRWICDNFPYYKNAGI [FOXJ2],> 3370

# Next, values leading:
row,Kd [nM],Binder
1,> 3370,KIETTPESRYLAQIGDSVSLTCSTTG [VCAM1]
2,182,ACGDSVLARMLRELGDSLRRPQLRLW [SLC19A1]
3,> 4660,FKAWGKFGGAFCRYADEMKEIQERQR [PURB]
4,1,DAIIQMIVELLKRVGDQWEEEQSLAS [c6orf222]
5,> 2280,TRRSMVFARHLREVGDEFRSRHLNST [POFUT2]
6,99,LRGSGAWGLLLRRVGDDVLVHLLARC [TERT]

# Target: Bcl-xL, Q07817
# Test: peptide SPOT array, c-Myc-tagged receptor at 1 uM or 100 nM, anti-c-Myc-Cy3
row,Binder,SPOT signal as a fraction of Bim BH3's signal on the same receptor and array
1,IKKSVTKGEMLKIVGKRFREHFPEIL [MAGEB2],0.52
2,LGRTGQVCLFLKRGADQHALDQEQRD [ACAP3],0.41
3,TVATRRLSGFLRTLADRLEGTKELLS [MINA],0.91
4,SKFVILSAHKLVFIGDTLSRQAKAAD [BCAR1],0.1
5,FSKREKLVEILRNIGDERTMVFVETK [DDX4],0.14
6,LQLHRVLPPDLKSLGDQYVKDEFRRH [ACN9],0.28
7,PAKKMTLSEIYRWICDNFPYYKNAGI [FOXJ2],2.03
8,FMEKLDNGALLCQLAETMQEKFKESM [GAS2],0.03

# Continued, values first:
row,SPOT signal as a fraction of Bim BH3's signal on the same receptor and array,Binder
1,0.12,GDRAGGRSWCLRRVGMSAGWLLLEDG [RNF8]
2,0.1,PEDLQDVGWFLHKLSQQILKKEKEKK [TLR5]
3,1.21,ACGDSVLARMLRELGDSLRRPQLRLW [SLC19A1]
4,0.04,VAGYRESAAFLLRSADELENLILQQN [NOL4]
5,0.26,KEFLALASSSLLKIGQETDKTTTRNR [NCKAP1]
6,0.03,SVGGRGISSKLDSLADELKFVPIIGI [SACS]
7,0.02,ADLYEEAAENLHQLSDKLPAPGRAMV [MTBP]
8,1.83,FKAWGKFGGAFCRYADEMKEIQERQR [PURB]
9,1.91,TRRSMVFARHLREVGDEFRSRHLNST [POFUT2]
10,0.32,LRGSGAWGLLLRRVGDDVLVHLLARC [TERT]

# Target: T1, Mcl-1, Q07820
# Test: as above
row,Binder,SPOT signal as a fraction of Bim BH3's signal on the same receptor and array
1,IKKSVTKGEMLKIVGKRFREHFPEIL [MAGEB2],0.27
2,LGRTGQVCLFLKRGADQHALDQEQRD [ACAP3],0.08
3,TVATRRLSGFLRTLADRLEGTKELLS [MINA],0.36
4,SKFVILSAHKLVFIGDTLSRQAKAAD [BCAR1],0.06
5,FSKREKLVEILRNIGDERTMVFVETK [DDX4],0.35
6,LQLHRVLPPDLKSLGDQYVKDEFRRH [ACN9],0.1
7,PAKKMTLSEIYRWICDNFPYYKNAGI [FOXJ2],0.47
8,FMEKLDNGALLCQLAETMQEKFKESM [GAS2],0.02

# Further lines, results first:
row,SPOT signal as a fraction of Bim BH3's signal on the same receptor and array,Binder
1,0.06,GDRAGGRSWCLRRVGMSAGWLLLEDG [RNF8]
2,0.3,PEDLQDVGWFLHKLSQQILKKEKEKK [TLR5]
3,0.45,ACGDSVLARMLRELGDSLRRPQLRLW [SLC19A1]
4,0.04,VAGYRESAAFLLRSADELENLILQQN [NOL4]
5,0.12,KEFLALASSSLLKIGQETDKTTTRNR [NCKAP1]
6,0.02,SVGGRGISSKLDSLADELKFVPIIGI [SACS]
7,0.02,ADLYEEAAENLHQLSDKLPAPGRAMV [MTBP]
8,1.16,FKAWGKFGGAFCRYADEMKEIQERQR [PURB]
9,1.67,TRRSMVFARHLREVGDEFRSRHLNST [POFUT2]
10,0.14,LRGSGAWGLLLRRVGDDVLVHLLARC [TERT]

# Target: Bcl-2, P10415
# Test: as above
row,Binder,SPOT signal as a fraction of Bim BH3's signal on the same receptor and array
1,IKKSVTKGEMLKIVGKRFREHFPEIL [MAGEB2],0.15
2,LGRTGQVCLFLKRGADQHALDQEQRD [ACAP3],0.06
3,LQLHRVLPPDLKSLGDQYVKDEFRRH [ACN9],0.05
4,FMEKLDNGALLCQLAETMQEKFKESM [GAS2],0.01

# Next, values leading:
row,SPOT signal as a fraction of Bim BH3's signal on the same receptor and array,Binder
1,0.04,GDRAGGRSWCLRRVGMSAGWLLLEDG [RNF8]
2,0.07,PEDLQDVGWFLHKLSQQILKKEKEKK [TLR5]
3,0.01,VAGYRESAAFLLRSADELENLILQQN [NOL4]
4,0.03,KEFLALASSSLLKIGQETDKTTTRNR [NCKAP1]
5,0.01,SVGGRGISSKLDSLADELKFVPIIGI [SACS]
6,0.01,ADLYEEAAENLHQLSDKLPAPGRAMV [MTBP]
7,0.03,LRGSGAWGLLLRRVGDDVLVHLLARC [TERT]

# Target: T3, Bcl-w, Q92843
# Test: as above
row,Binder,SPOT signal as a fraction of Bim BH3's signal on the same receptor and array
1,IKKSVTKGEMLKIVGKRFREHFPEIL [MAGEB2],0.59
2,LGRTGQVCLFLKRGADQHALDQEQRD [ACAP3],0.11
3,LQLHRVLPPDLKSLGDQYVKDEFRRH [ACN9],0.14
4,FMEKLDNGALLCQLAETMQEKFKESM [GAS2],0.02

# The remaining lines, values ahead:
row,SPOT signal as a fraction of Bim BH3's signal on the same receptor and array,Binder
1,0.07,GDRAGGRSWCLRRVGMSAGWLLLEDG [RNF8]
2,0.3,PEDLQDVGWFLHKLSQQILKKEKEKK [TLR5]
3,0.03,VAGYRESAAFLLRSADELENLILQQN [NOL4]
4,0.26,KEFLALASSSLLKIGQETDKTTTRNR [NCKAP1]
5,0.02,SVGGRGISSKLDSLADELKFVPIIGI [SACS]
6,0.02,ADLYEEAAENLHQLSDKLPAPGRAMV [MTBP]
7,0.12,LRGSGAWGLLLRRVGDDVLVHLLARC [TERT]

# Target: T4, Bfl-1, Q16548
# Test: as above
row,Binder,SPOT signal as a fraction of Bim BH3's signal on the same receptor and array
1,SWFIQSLCAMLKQYADKLEFMHILTR [CASP3],0.25
2,IKKSVTKGEMLKIVGKRFREHFPEIL [MAGEB2],0.45
3,LGRTGQVCLFLKRGADQHALDQEQRD [ACAP3],0.16
4,TVATRRLSGFLRTLADRLEGTKELLS [MINA],0.32
5,FSKREKLVEILRNIGDERTMVFVETK [DDX4],0.1
6,LQLHRVLPPDLKSLGDQYVKDEFRRH [ACN9],0.15
7,PAKKMTLSEIYRWICDNFPYYKNAGI [FOXJ2],0.54
8,FMEKLDNGALLCQLAETMQEKFKESM [GAS2],0.02

# Other lines, results leading:
row,SPOT signal as a fraction of Bim BH3's signal on the same receptor and array,Binder
1,0.13,GDRAGGRSWCLRRVGMSAGWLLLEDG [RNF8]
2,0.25,PEDLQDVGWFLHKLSQQILKKEKEKK [TLR5]
3,0.03,KIETTPESRYLAQIGDSVSLTCSTTG [VCAM1]
4,0.38,ACGDSVLARMLRELGDSLRRPQLRLW [SLC19A1]
5,0.02,VAGYRESAAFLLRSADELENLILQQN [NOL4]
6,0.23,KEFLALASSSLLKIGQETDKTTTRNR [NCKAP1]
7,0.02,SVGGRGISSKLDSLADELKFVPIIGI [SACS]
8,0.02,ADLYEEAAENLHQLSDKLPAPGRAMV [MTBP]
9,1.05,FKAWGKFGGAFCRYADEMKEIQERQR [PURB]
10,0.75,TRRSMVFARHLREVGDEFRSRHLNST [POFUT2]
11,0.19,LRGSGAWGLLLRRVGDDVLVHLLARC [TERT]

# Source: PMC4072508, “Genome-Wide Prediction and Validation of Peptides That Bind Human Prosurvival Bcl-2 Proteins” (PLoS Computational Biology, 2014)
